# Source: US20210292396A1
# How the values were obtained:
# Assay in all cases: cell-based or functional assay
# [1] = molecular target: Env of HIV isolate TH976.17 (clade AE) (HIV)
# [2] = molecular target: Env of HIV isolate 3817.v2.c59 (clade CD) (HIV)
# [3] = molecular target: Env of HIV isolate X2131.C1.B5 (clade G) (HIV)
# [4] = molecular target: HIV Env of isolate MW965.26 (HIV)
# [5] = molecular target: HIV Env of isolate CAP210.E8 (HIV)
# [6] = molecular target: HIV Env of isolate 288.38 (HIV)
# [7] = molecular target: Env of HIV isolate 3468.v1.c12 (clade AD) (HIV)
# [8] = molecular target: Env of HIV isolate 3016.v5.c45 (clade D) (HIV)
# [9] = molecular target: Env of HIV isolate KNH1209.18 (clade A) (HIV)
# [10] = molecular target: Env of HIV isolate HT593.1 (clade B) (HIV)
# [11] = molecular target: Env of HIV isolate ZM106.9 (clade C) (HIV)
# [12] = molecular target: Env of HIV isolate BG505.W6M.C2 (clade A) (HIV)
# [13] = molecular target: Env of HIV isolate 0439.v5.c1 (clade A) (HIV)
# [14] = molecular target: Env of HIV isolate PVO.04 (clade B) (HIV)
# [15] = molecular target: Env of HIV isolate CNE15 (clade BC) (HIV)
# [16] = molecular target: Env of HIV isolate TH966.8 (clade AE) (HIV)
# [17] = molecular target: HIV Env of isolate 6322.v4.c1 (HIV)
# [18] = molecular target: Env of HIV isolate DU156.12 (clade C) (HIV)
# [19] = molecular target: Env of HIV isolate ZM176.66 (clade C) (HIV)
# [20] = molecular target: Env of HIV isolate TH023.6 (clade AE) (HIV)
# [21] = molecular target: Env of HIV isolate BS208.B1 (clade A) (HIV)
# [22] = molecular target: Env of HIV isolate CH117.4 (clade BC) (HIV)
# [23] = molecular target: HIV Env of isolate 3873.v1.c24 (HIV)
# [24] = molecular target: Env of HIV isolate 3301.v1.c24 (clade AC) (HIV)
# [25] = molecular target: Env of HIV isolate RW020.2 (clade A) (HIV)
# [26] = molecular target: HIV Env of isolate 16055-2.3 (HIV)
# [27] = molecular target: Env of HIV isolate 0077.v1.c16 (clade C) (HIV)
# [28] = molecular target: HIV Env of isolate DU151.02 (HIV)
# [29] = molecular target: Env of HIV isolate UG024.2 (clade D) (HIV)
# [30] = molecular target: Env of HIV isolate 3168.v4.c10 (clade C) (HIV)
# [31] = molecular target: Env of HIV isolate SO18.18 (clade C) (HIV)
# [32] = molecular target: HIV Env of isolate ZM106.9 (HIV)
# [33] = molecular target: Env of HIV isolate CE703010217.B6 (clade C) (HIV)
# [34] = molecular target: Env of HIV isolate 16845-2.22 (clade C) (HIV)
# [35] = molecular target: Env of HIV isolate BaL.26 (clade B) (HIV)
# [36] = molecular target: Env of HIV isolate TRO.11 (clade B) (HIV)
# [37] = molecular target: Env of HIV isolate BJOX010000.06.2 (clade AE) (HIV)
# [38] = molecular target: HIV Env of isolate TV1.29 (HIV)
# [39] = molecular target: Env of HIV isolate R3265.c6 (clade AE) (HIV)
# [40] = molecular target: Env of HIV isolate 16055-2.3 (clade C) (HIV)
# [41] = molecular target: Env of HIV isolate CNE3 (clade AE) (HIV)
# [42] = molecular target: Env of HIV isolate ZM214.15 (clade C) (HIV)
# [43] = molecular target: Env of HIV isolate 25710-2.43 (clade C) (HIV)
# [44] = molecular target: Env of HIV isolate CAP210.E8 (clade C) (HIV)
# [45] = molecular target: Env of HIV isolate 620345.c1 (clade AE) (HIV)
# [46] = molecular target: Env of HIV isolate 26191-2.48 (clade C) (HIV)
# [47] = molecular target: Env of HIV isolate 89.6.DG (clade B) (HIV)
# [48] = molecular target: Env of HIV isolate P1981.C5.3 (clade G) (HIV)
# [49] = molecular target: Env of HIV isolate 3415.v1.c1 (clade A) (HIV)
binder,measurement,setting,value
"ePGT121.15 (ePGT121.15.H6 VH and ePGT121.15.L1 VL) (antibody, V domains shown) VH: QMQLQESGPGLVKPGETLSLTCSVSGASISSSYWSWLRETPGKGLEWIGYTHHSGDTNYAPSLKSRVHLGLHPSKNQVSLSLTSVTAADTAVYYCARTLHGRRIYGVVAFNEFFTYFYWEVWGKGTQVTVSS VL: SDISVAPGETVRISCGGESIGSRAVQWYQHRAGQAPKLIIYNNQDRPPGIPERFSGSPDIDFGTTATLTITNVEAGDEATYYCHIWDSRRPTNWVFGGGTTLTVL","IC50, pseudovirus neutralization",[1],> 50 µg/mL
same,"IC50, pseudovirus neutralization",[2],0.984 µg/mL
same,"IC50, pseudovirus neutralization",[3],2 ng/mL
same,"IC80, pseudovirus neutralization",[4],9 ng/mL
same,"IC80, pseudovirus neutralization",[5],0.268 µg/mL
same,"IC80, pseudovirus neutralization",[6],5 ng/mL
same,"IC50, pseudovirus neutralization",[7],2 ng/mL
same,"IC50, pseudovirus neutralization",[8],> 50 µg/mL
same,"IC50, pseudovirus neutralization",[9],3 ng/mL
same,"IC50, pseudovirus neutralization",[10],8 ng/mL
same,"IC50, pseudovirus neutralization",[11],2 ng/mL
same,"IC50, pseudovirus neutralization",[12],0.066 µg/mL
same,"IC50, pseudovirus neutralization",[13],4.72 µg/mL
same,"IC50, pseudovirus neutralization",[14],6 ng/mL
same,"IC50, pseudovirus neutralization",[15],3.52 µg/mL
same,"IC50, pseudovirus neutralization",[16],> 50 µg/mL
same,"IC80, pseudovirus neutralization",[17],> 50 µg/mL
same,"IC50, pseudovirus neutralization",[18],2 ng/mL
same,"IC50, pseudovirus neutralization",[19],0.073 µg/mL
same,"IC50, pseudovirus neutralization",[20],> 50 µg/mL
same,"IC50, pseudovirus neutralization",[21],> 50 µg/mL
same,"IC50, pseudovirus neutralization",[22],> 50 µg/mL
same,"IC80, pseudovirus neutralization",[23],0.011 µg/mL
same,"IC50, pseudovirus neutralization",[24],6 ng/mL
same,"IC50, pseudovirus neutralization",[25],3 ng/mL
same,"IC80, pseudovirus neutralization",[26],0.211 µg/mL
same,"IC50, pseudovirus neutralization",[27],> 50 µg/mL
same,"IC80, pseudovirus neutralization",[28],4 ng/mL
same,"IC50, pseudovirus neutralization",[29],0.516 µg/mL
same,"IC50, pseudovirus neutralization",[30],0.026 µg/mL
same,"IC50, pseudovirus neutralization",[31],4 ng/mL
same,"IC80, pseudovirus neutralization",[32],6 ng/mL
same,"IC50, pseudovirus neutralization",[33],4 ng/mL
same,"IC50, pseudovirus neutralization",[34],0.077 µg/mL
same,"IC50, pseudovirus neutralization",[35],3 ng/mL
same,"IC50, pseudovirus neutralization",[36],3 ng/mL
same,"IC50, pseudovirus neutralization",[37],> 50 µg/mL
same,"IC80, pseudovirus neutralization",[38],0.01 µg/mL
same,"IC50, pseudovirus neutralization",[39],> 50 µg/mL
same,"IC50, pseudovirus neutralization",[40],0.029 µg/mL
same,"IC50, pseudovirus neutralization",[41],> 50 µg/mL
same,"IC50, pseudovirus neutralization",[42],0.028 µg/mL
same,"IC50, pseudovirus neutralization",[43],6 ng/mL
same,"IC50, pseudovirus neutralization",[44],0.052 µg/mL
same,"IC50, pseudovirus neutralization",[45],> 50 µg/mL
same,"IC50, pseudovirus neutralization",[46],5 ng/mL
same,"IC50, pseudovirus neutralization",[47],2 ng/mL
same,"IC50, pseudovirus neutralization",[48],2 ng/mL
same,"IC50, pseudovirus neutralization",[49],0.017 µg/mL
